The data set addresses coagulation factor VIII (plasma-derived, Haemoctin 500) (Homo sapiens, UniProt P00451 20-2351). The experiment in a line: nitrocellulose filter binding, fluorescence of filtrate; 5 mM CaCl2, 5 mM MgCl2; Tris 40 mM, NaCl 117 mM, CaCl2 5 mM, MgCl2 5 mM, pH 7.4; selection at 4 °C, Kd assay temperature not stated; FVIII 20 ng (700 pM), DNA 0.5-700 nM. Particulars: protein: commercial; label: fluorescein via labelled reverse primer (S3) stated for the labelling PCR; the labelled strand is not explicitly specified; predicted three-branch stem-loop.

coagulation factor VIII (plasma-derived, Haemoctin 500), sequence (P00451 20-2351): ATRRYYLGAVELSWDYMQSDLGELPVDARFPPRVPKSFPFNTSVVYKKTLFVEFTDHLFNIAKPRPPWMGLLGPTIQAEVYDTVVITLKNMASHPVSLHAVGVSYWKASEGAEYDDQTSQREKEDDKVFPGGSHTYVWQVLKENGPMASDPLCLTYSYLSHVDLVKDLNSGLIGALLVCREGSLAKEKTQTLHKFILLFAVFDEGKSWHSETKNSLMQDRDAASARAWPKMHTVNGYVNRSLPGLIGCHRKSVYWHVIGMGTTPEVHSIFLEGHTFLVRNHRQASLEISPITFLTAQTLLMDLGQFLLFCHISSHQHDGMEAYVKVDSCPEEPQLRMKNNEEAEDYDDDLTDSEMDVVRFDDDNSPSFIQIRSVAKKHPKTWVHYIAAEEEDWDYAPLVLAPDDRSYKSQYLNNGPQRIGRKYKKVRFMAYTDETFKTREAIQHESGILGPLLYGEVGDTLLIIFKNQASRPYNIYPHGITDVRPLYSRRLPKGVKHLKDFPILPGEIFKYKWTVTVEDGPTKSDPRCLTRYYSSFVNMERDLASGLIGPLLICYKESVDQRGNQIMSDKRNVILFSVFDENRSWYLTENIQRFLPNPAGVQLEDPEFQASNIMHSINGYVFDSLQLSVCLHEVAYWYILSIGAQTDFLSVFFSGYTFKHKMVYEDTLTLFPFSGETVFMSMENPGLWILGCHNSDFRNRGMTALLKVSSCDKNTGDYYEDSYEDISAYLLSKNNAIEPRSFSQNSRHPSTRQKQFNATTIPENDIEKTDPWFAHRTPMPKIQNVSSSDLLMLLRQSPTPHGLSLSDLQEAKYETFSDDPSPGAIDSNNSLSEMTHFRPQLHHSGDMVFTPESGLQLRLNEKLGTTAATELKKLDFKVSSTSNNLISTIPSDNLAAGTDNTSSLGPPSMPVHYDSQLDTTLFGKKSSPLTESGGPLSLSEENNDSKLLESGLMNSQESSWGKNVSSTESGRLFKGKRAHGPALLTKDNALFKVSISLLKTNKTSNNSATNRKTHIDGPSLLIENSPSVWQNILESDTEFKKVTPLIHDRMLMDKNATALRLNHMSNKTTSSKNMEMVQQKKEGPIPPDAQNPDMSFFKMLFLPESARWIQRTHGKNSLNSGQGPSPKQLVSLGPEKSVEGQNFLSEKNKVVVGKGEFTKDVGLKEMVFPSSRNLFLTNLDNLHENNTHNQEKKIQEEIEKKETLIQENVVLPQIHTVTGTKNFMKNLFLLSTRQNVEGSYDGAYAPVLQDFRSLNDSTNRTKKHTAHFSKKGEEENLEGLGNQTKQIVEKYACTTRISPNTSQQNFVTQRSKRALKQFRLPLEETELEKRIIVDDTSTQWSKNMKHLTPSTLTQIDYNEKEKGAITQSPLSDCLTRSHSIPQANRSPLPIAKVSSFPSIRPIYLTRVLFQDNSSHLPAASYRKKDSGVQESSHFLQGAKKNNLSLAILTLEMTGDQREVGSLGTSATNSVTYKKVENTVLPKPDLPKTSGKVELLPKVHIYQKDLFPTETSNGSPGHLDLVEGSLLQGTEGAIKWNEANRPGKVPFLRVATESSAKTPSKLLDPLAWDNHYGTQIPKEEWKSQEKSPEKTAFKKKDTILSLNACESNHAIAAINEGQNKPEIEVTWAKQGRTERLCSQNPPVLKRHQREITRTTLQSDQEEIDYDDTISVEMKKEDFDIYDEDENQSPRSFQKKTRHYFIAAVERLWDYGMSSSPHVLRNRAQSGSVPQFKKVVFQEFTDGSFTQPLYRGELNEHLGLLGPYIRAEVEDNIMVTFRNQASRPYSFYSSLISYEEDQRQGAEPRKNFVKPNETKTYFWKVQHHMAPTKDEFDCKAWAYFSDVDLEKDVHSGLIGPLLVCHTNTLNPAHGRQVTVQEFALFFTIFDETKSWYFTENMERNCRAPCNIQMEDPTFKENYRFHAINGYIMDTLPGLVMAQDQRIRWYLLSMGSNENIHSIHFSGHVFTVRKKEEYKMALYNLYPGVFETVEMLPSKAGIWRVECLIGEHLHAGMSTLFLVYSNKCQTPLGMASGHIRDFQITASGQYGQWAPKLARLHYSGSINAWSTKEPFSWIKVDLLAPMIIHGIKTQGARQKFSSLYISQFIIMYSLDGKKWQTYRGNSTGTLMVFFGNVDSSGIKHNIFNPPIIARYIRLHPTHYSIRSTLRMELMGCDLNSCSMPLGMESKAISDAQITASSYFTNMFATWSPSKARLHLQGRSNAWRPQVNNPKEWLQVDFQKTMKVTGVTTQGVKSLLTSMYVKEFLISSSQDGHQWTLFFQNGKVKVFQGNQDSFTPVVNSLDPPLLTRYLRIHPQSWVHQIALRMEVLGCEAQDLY

B1: FVIII aptamer (full-length clone, 77 nt) (ssDNA)
DNA: GGTGTTACTCTTCATGTGGATCCGTACGTCCTGGGCTTCTTGATCGTCAGCCGAAGAATTCAGCACCCTAGCCTCGT
For the molecule B1, the Kd is 925 ± 11.6 nM.

For orientation: Kd means a measure of binding affinity in units of concentration.

The record behind these values is article PMC5603883, “Challenges to Design and Develop of DNA Aptamers for Protein Targets. II. Development of the Aptameric Affinity Ligands Specific to Human Plasma Coagulation Factor VIII Using SEC-SELEX”.
